The values that follow come from paper PMC10667097, “Activity-based profiling of cullin–RING E3 networks by conformation-specific probes” (Nature Chemical Biology, 2023).

Test [1] addresses T1, neddylated CUL2 (endogenous) (human (endogenous in 293T), UniProt Q13617;Q15843, NEDD8-modified | linked to the cullin).
T1 construct: CUL2, human; NEDD8, human, the conjugated form; also called NEDD8-linked CUL2; source: endogenous, 293T lysate
In words: affinity purification with mass spectrometry; IPs with biotinylated N8C_Fab3b on streptavidin beads from lysates of human cells (293T, K562, panel of ten lines), N8-block; cells treated with DMSO, MLN4924, CSN5i-3, Indisulam, MZ1, ferric ammonium citrate or TNF (with MG132 and CB-5083 before stimuli); DIA MS. Particulars: one partner purified.

Test [2] has as its target T2, neddylated CUL3 (endogenous) (human (endogenous in K562, 293T), UniProt Q13618;Q15843, NEDD8-modified | linked to the cullin).
T2 construct: CUL3, human; NEDD8, human, the conjugated form; also called NEDD8-linked CUL3; source: endogenous, K562 lysate; endogenous, 293T lysate
In words: co-IP; biotinylated Fab on streptavidin magnetic beads, K562 lysates (cells treated with DMSO, MLN4924 or CSN5i-3; N8-block), 45 min at 4 °C, immunoblotting. Particulars: one partner purified. In general terms: Immunoblotting shows a protein as a band on a membrane.

Test [3] addresses T3, neddylated CUL1 C-terminal region bound to RBX1 (Homo sapiens, UniProt Q13616;P62877;Q15843, L421E | V451E | V452K | Y455K, NEDD8 linked to a specific site in the WHB subdomain | C-terminus linked to the cullin (isopeptide)).
T3 construct: CUL1, human, C-terminal region residues 411-776 with solubilizing substitutions; RBX1, human; NEDD8, human, the conjugated form; also called neddylated CUL1–RBX1; source: neddylated in vitro; not shown: MBP, N-terminal, cleaved; GST, N-terminal, cleaved; copies: + +
In words: ELISA; proteins (2 µg/ml) coated on 384-well MaxiSorp plates overnight at 4 °C; Fab titrated (Fig. 1c at 50 nM Fab); detected with anti-M13-HRP (phage) or anti-Kappa-HRP (protein); EC50 by nonlinear regression; the results call the Fabs phage-displayed, the methods give EC50 for purified Fab proteins. Particulars: both partners purified. (In general: An ELISA detects its analyte on a solid surface through an enzyme-linked reagent.)

The target in test [4] is T4, purified recombinant CUL3 modified by NEDD8 (band on the immunoblot) (Homo sapiens, UniProt Q13618;Q15843, NEDD8 linked to a specific site in the WHB subdomain | C-terminus linked to the cullin (isopeptide)).
T4 construct: CUL3, human; NEDD8, human, the conjugated form; Resolved by SDS-PAGE, so RBX1 is not in the band; also called neddylated CUL3–RBX1; source: recombinant, purified, neddylated in vitro; not shown: GST, N-terminal, cleaved
T4 sequence (Q13618 whole entry, chain 1 of 2): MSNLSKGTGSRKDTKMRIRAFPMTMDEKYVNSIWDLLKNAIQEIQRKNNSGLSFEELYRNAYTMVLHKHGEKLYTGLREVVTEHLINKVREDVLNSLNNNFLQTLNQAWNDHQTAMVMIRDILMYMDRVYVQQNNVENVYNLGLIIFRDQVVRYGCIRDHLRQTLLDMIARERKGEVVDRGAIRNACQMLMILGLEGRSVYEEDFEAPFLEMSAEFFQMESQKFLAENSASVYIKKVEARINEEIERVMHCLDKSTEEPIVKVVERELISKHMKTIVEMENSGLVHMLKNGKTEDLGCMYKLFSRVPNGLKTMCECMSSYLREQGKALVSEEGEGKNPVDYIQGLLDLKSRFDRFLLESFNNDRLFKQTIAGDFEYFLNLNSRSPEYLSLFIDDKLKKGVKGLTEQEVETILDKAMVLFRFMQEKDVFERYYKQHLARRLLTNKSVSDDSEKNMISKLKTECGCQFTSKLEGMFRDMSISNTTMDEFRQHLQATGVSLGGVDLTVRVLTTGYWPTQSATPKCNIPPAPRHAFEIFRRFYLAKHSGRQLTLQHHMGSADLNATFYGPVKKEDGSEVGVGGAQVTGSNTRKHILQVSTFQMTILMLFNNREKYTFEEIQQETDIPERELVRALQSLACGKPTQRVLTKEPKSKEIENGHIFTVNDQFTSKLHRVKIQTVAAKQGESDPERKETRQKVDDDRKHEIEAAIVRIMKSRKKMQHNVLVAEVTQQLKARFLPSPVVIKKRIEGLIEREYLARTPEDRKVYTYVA
T4 sequence (Q15843 1-76, chain 2 of 2): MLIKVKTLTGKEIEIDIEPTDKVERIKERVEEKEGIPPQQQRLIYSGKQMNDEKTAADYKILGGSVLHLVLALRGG
In words: far-Western, overlay or dot blot; 200 ng neddylated or unneddylated recombinant CUL1-5 after SDS-PAGE on PVDF; 2 µg/ml biotinylated Fab as primary binder, Streptavidin-HRP. Particulars: both partners purified.

T2 sequence (Q13618 whole entry, chain 1 of 2): as the sequence (Q13618 whole entry, chain 1 of 2) above
T2 sequence (Q15843 1-76, chain 2 of 2): as the sequence (Q15843 1-76, chain 2 of 2) above
T3 sequence (Q13616 411-776 L421E/V451E/V452K/Y455K, chain 1 of 3): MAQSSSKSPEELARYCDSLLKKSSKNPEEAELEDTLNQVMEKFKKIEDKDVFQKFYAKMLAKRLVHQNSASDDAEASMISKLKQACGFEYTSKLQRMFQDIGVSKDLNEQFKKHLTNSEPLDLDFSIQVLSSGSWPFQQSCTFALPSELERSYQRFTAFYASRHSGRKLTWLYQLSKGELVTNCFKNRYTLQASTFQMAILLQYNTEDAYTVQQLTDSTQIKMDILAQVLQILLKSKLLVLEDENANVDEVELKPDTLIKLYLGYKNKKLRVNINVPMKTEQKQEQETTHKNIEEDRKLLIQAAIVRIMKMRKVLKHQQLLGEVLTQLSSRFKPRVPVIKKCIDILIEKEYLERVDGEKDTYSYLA
T3 sequence (P62877 whole entry, chain 2 of 3, the tested form may be a part): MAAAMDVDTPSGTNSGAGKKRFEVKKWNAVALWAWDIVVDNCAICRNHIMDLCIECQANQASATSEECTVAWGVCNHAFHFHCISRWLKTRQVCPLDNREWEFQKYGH
T3 sequence (Q15843 1-76, chain 3 of 3): as the sequence (Q15843 1-76, chain 2 of 2) above
T1 sequence (Q13617 whole entry, chain 1 of 2): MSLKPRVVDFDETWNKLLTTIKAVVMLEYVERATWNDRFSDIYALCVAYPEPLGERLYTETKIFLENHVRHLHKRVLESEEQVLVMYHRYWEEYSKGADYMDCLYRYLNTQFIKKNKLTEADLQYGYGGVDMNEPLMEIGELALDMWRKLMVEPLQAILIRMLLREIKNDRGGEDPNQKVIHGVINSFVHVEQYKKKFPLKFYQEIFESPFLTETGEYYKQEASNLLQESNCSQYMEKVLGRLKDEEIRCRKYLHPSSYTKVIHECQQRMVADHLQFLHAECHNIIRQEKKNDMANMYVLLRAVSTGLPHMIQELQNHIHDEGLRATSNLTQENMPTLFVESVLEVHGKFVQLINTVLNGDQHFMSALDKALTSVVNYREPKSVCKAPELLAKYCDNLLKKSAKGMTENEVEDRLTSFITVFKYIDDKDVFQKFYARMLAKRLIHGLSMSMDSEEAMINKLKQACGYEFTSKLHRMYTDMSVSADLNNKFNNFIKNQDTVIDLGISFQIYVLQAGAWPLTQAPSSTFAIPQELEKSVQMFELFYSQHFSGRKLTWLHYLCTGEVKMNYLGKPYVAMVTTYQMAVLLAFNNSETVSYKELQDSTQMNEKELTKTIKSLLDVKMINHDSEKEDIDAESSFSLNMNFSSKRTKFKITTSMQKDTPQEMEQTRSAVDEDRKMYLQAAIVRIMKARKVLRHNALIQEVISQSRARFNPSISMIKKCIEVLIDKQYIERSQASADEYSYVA
T1 sequence (Q15843 1-76, chain 2 of 2): as the sequence (Q15843 1-76, chain 2 of 2) above

B1: N8C_Fab3b, biotinylated (Fab, V domains shown)
VH: EVQLVESGGGLVQPGGSLRLSCAASGFNFSSSSIHWVRQAPGKGLEWVASISSSYGYTYYADSVKGRFTISADTSKNTAYLQMNSLRAEDTAVYYCARDPFGWAAHGVGLDYWGQGTLVTVSS
VL: DIQMTQSPSSLSASVGDRVTITCRASQSVSSAVAWYQQKPGKAPKLLIYSASSLYSGVPSRFSGSRSGTDFTLTISSLQPEDFATYYCQQSSYSLITFGQGTKVEIK
notes: as the heavy chain of m5; as the light chain of m5; GS linker between the heavy chain and the AviTag-His6 tag; Held on streptavidin beads in the IPs; source: E. coli Rosetta (DE3), purified, biotinylated in vitro with BirA; not shown: AviTag, C-terminal, kept
In the case of B1, the binding result in test [1] and in test [2] was “binds” throughout.

B2: N8C_Fab4a (Fab, V domains shown)
VH: EVQLVESGGGLVQPGGSLRLSCAASGFNLSYYSMHWVRQAPGKGLEWVASISPYYSYTYYADSVKGRFTISADTSKNTAYLQMNSLRAEDTAVYYCARSHWASYYAGAFDYWGQGTLVTVSS
VL: DIQMTQSPSSLSASVGDRVTITCRASQSVSSAVAWYQQKPGKAPKLLIYSASSLYSGVPSRFSGSRSGTDFTLTISSLQPEDFATYYCQQGYAFWHPITFGQGTKVEIK
Take B2: the “fold higher EC50 than N8C_Fab1b” value in test [3] was about 3 fold.

B3: N8C_Fab4a, biotinylated (Fab, V domains shown)
VH: EVQLVESGGGLVQPGGSLRLSCAASGFNLSYYSMHWVRQAPGKGLEWVASISPYYSYTYYADSVKGRFTISADTSKNTAYLQMNSLRAEDTAVYYCARSHWASYYAGAFDYWGQGTLVTVSS
VL: DIQMTQSPSSLSASVGDRVTITCRASQSVSSAVAWYQQKPGKAPKLLIYSASSLYSGVPSRFSGSRSGTDFTLTISSLQPEDFATYYCQQGYAFWHPITFGQGTKVEIK
notes: as the heavy chain of m6; as the light chain of m6; GS linker between the heavy chain and the AviTag-His6 tag; source: E. coli Rosetta (DE3), purified, biotinylated in vitro with BirA; not shown: AviTag, C-terminal, kept
Take B3: the binding result in test [4] and in test [2] was “binds” throughout.
